US20180346602A1
Residue numbers refer to the chain shown, from its start.

B1: anti-variant (human) Fc-region antibody M1.3.17 (antibody, V domains shown)
VH: EVKLLESGGGLVQPGGSLKLSCAASGIDFRRYWMNWVRQAPGKGLEWIGEIDPDSSTINYTPSLKDKFIISRDNAKNTMYLQMRKVRSEDTALYYCARPYDYGAWFAYWGQGTLVTVSA
VL: QAVVTQESALTTSPGETVTLTCRSTTGAVTTSNYANWVQEKPDHLFTGLIGGTNKRAPGVPARFSGSLIGDKAALTITGAQTEDEAIYFCALWYSDHWVFGGGTKLTVL
B2: anti-AAA variant Fc-region antibody M1.6.22 (antibody, V domains shown)
VH: EVQLVESGGDLVKPGGSLKLSCAASGFTFSSYGMSWVRQTPDKRLEWVATISSGGSYIYYPDSVKGRFTISRDNAKNTLYLQMSSLKSEDTAMYYCARLGMITTGYAMDYWGQGTSVTVSS
VL: DVLMTQTPLSLPVSLGDQASISCRSSQTIVHSTGHTYLEWFLQKPGQSPKLLIYKVSNRFSGVPDRFSGSGSGTDFTLKISRVEAEDLGVYYCFQGSHVPYTFGGGTKLEIK
B3: anti-variant (human) Fc-region antibody M1.7.24 (antibody, V domains shown)
VH: B1 VH with I27F, R30S, D52T, M79L, R84I, A97V, Y108S
VL: B1 VL with T25S, D96N

Each binder was assayed against anti-IGF-1R antibody (IgG1 subclass with mutations I253A/H310A/H435A) [IgG part: P01857] (assay: sandwich ELISA assay A; capture M1.7.10-Bi; antibody 3 at 6 ng/mL).

Q: B1 was tested. Which signal [OD405 nm] did it give?
A: 0.038 OD405 nm

Q: With B2 as the binder, how does the signal [OD405 nm] read?
A: 0.858 OD405 nm

Q: How did the signal [OD405 nm] turn out when B3 was run?
A: 0.042 OD405 nm

What follows are binders tested against anti-P-Selectin antibody (IgG4 subclass with mutations S228P/L235E) [IgG part: P01861] (assay: sandwich ELISA assay A; capture M1.7.10-Bi; antibody 4 at 2 ng/mL).

Q: B1 was tested. Which signal [OD405 nm] did it give?
A: 0.034 OD405 nm

Q: B2 was tested. Which signal [OD405 nm] did it give?
A: 0.04 OD405 nm

Q: How did the signal [OD405 nm] turn out when B3 was run?
A: 0.036 OD405 nm

Each binder was assayed against anti-VEGF/ANG2 antibody (wild-type IgG1 subclass) [IgG part: P01857] (assay: sandwich ELISA assay A; capture M1.7.10-Bi; antibody 5 at 2 ng/mL).

Q: For B1, which signal [OD405 nm] is on record?
A: 0.034 OD405 nm

Q: With B2 as the binder, how does the signal [OD405 nm] read?
A: 0.047 OD405 nm

Q: With B3 as the binder, how does the signal [OD405 nm] read?
A: 0.038 OD405 nm

The binders below were run against anti-VEGF/ANG2 antibody (wild-type IgG1 subclass) [IgG part: P01857] (assay: sandwich ELISA assay A; capture M1.7.10-Bi; antibody 5 at 6 ng/mL).

Q: B1 was tested. Which signal [OD405 nm] did it give?
A: 0.036 OD405 nm

Q: With B2 as the binder, how does the signal [OD405 nm] read?
A: 0.046 OD405 nm

Q: B3 was tested. Which signal [OD405 nm] did it give?
A: 0.042 OD405 nm

Each binder was assayed against anti-P-Selectin antibody (IgG4 subclass with mutations S228P/L235E) [IgG part: P01861] (assay: sandwich ELISA assay A; capture M1.7.10-Bi; antibody 4 at 25 ng/mL).

Q: B1 was tested. Which signal [OD405 nm] did it give?
A: 0.037 OD405 nm

Q: With B2 as the binder, how does the signal [OD405 nm] read?
A: 0.057 OD405 nm

Q: B3 was tested. Which signal [OD405 nm] did it give?
A: 0.048 OD405 nm

What follows are binders tested against anti-P-Selectin antibody (IgG4 subclass with mutations S228P/L235E) [IgG part: P01861] (assay: sandwich ELISA assay A; capture M1.7.10-Bi; antibody 4 at 50 ng/mL).

Q: How did the signal [OD405 nm] turn out when B1 was run?
A: 0.037 OD405 nm

Q: B2 was tested. Which signal [OD405 nm] did it give?
A: 0.052 OD405 nm

Q: How did the signal [OD405 nm] turn out when B3 was run?
A: 0.049 OD405 nm

The binders below were run against anti-VEGF/ANG2 antibody (wild-type IgG1 subclass) [IgG part: P01857] (assay: sandwich ELISA assay A; capture M1.7.10-Bi; antibody 5 at 25 ng/mL).

Q: For B1, which signal [OD405 nm] is on record?
A: 0.037 OD405 nm

Q: How did the signal [OD405 nm] turn out when B2 was run?
A: 0.053 OD405 nm

Q: B3 was tested. Which signal [OD405 nm] did it give?
A: 0.039 OD405 nm

What follows are binders tested against anti-VEGF/ANG2 antibody (IgG1 subclass with mutations P329G/L234A/L235A/I253A/H310A/H435A) [IgG part: P01857] (assay: sandwich ELISA assay A; capture M1.7.10-Bi; antibody 1 at 100 ng/mL).

Q: With B1 as the binder, how does the signal [OD405 nm] read?
A: 0.043 OD405 nm

Q: With B2 as the binder, how does the signal [OD405 nm] read?
A: 0.059 OD405 nm

Q: Which signal [OD405 nm] does the source give for B3 here?
A: 0.053 OD405 nm

What follows are binders tested against anti-IGF-1R antibody (IgG1 subclass with mutations I253A/H310A/H435A) [IgG part: P01857] (assay: sandwich ELISA assay A; capture M1.7.10-Bi; antibody 3 at 100 ng/mL).

Q: Which signal [OD405 nm] does the source give for B1 here?
A: 0.047 OD405 nm

Q: For B2, which signal [OD405 nm] is on record?
A: 2.89 OD405 nm

Q: B3 was tested. Which signal [OD405 nm] did it give?
A: 0.06 OD405 nm

Each binder was assayed against anti-P-Selectin antibody (IgG4 subclass with mutations S228P/L235E) [IgG part: P01861] (assay: sandwich ELISA assay A; capture M1.7.10-Bi; antibody 4 at 100 ng/mL).

Q: With B1 as the binder, how does the signal [OD405 nm] read?
A: 0.04 OD405 nm

Q: Which signal [OD405 nm] does the source give for B2 here?
A: 0.057 OD405 nm

Q: How did the signal [OD405 nm] turn out when B3 was run?
A: 0.046 OD405 nm

What follows are binders tested against anti-IGF-1R antibody (IgG1 subclass with mutations I253A/H310A/H435A) (human) [IgG part: P01857] (assay: sandwich ELISA assay C; capture on SA plate; tracer FcγRI-Dig; analyte 2 ng/mL).

Q: B1 was tested. Which signal [OD405 nm] did it give?
A: 1.26 OD405 nm

Q: B2 was tested. Which signal [OD405 nm] did it give?
A: 0.082 OD405 nm

Q: For B3, which signal [OD405 nm] is on record?
A: 0.074 OD405 nm

Each binder was assayed against anti-P-Selectin antibody (IgG4 subclass with mutations S228P/L235E) (human) [IgG part: P01861] in the same assay as above.

Q: How did the signal [OD405 nm] turn out when B1 was run?
A: 1.19 OD405 nm

Q: For B2, which signal [OD405 nm] is on record?
A: 0.067 OD405 nm

Q: How did the signal [OD405 nm] turn out when B3 was run?
A: 0.056 OD405 nm

Each binder was assayed against anti-VEGF/ANG2 antibody (IgG1 subclass with mutations P329G/L234A/L235A) (human) [IgG part: P01857] in the same assay as above.

Q: Which signal [OD405 nm] does the source give for B1 here?
A: 1.22 OD405 nm

Q: Which signal [OD405 nm] does the source give for B2 here?
A: 0.072 OD405 nm

Q: Which signal [OD405 nm] does the source give for B3 here?
A: 0.093 OD405 nm

What follows are binders tested against anti-VEGF/ANG2 antibody (IgG1 subclass with mutations P329G/L234A/L235A/I253A/H310A/H435A) (human) [IgG part: P01857] in the same assay as above.

Q: Which signal [OD405 nm] does the source give for B1 here?
A: 1.17 OD405 nm

Q: For B2, which signal [OD405 nm] is on record?
A: 0.077 OD405 nm

Q: How did the signal [OD405 nm] turn out when B3 was run?
A: 0.085 OD405 nm

What follows are binders tested against anti-IGF-1R antibody (IgG1 subclass with mutations I253A/H310A/H435A) (human) [IgG part: P01857] (assay: sandwich ELISA assay B; capture on SA plate; tracer M1.7.10-Dig; analyte 2 ng/mL).

Q: Which signal [OD405 nm] does the source give for B1 here?
A: 0.047 OD405 nm

Q: With B2 as the binder, how does the signal [OD405 nm] read?
A: 1.48 OD405 nm

Q: Which signal [OD405 nm] does the source give for B3 here?
A: 0.047 OD405 nm

Each binder was assayed against anti-P-Selectin antibody (IgG4 subclass with mutations S228P/L235E) (human) [IgG part: P01861] in the same assay as above.

Q: For B1, which signal [OD405 nm] is on record?
A: 0.049 OD405 nm

Q: B2 was tested. Which signal [OD405 nm] did it give?
A: 0.032 OD405 nm

Q: With B3 as the binder, how does the signal [OD405 nm] read?
A: 0.033 OD405 nm

What follows are binders tested against anti-VEGF/ANG2 antibody (IgG1 subclass with mutations P329G/L234A/L235A) (human) [IgG part: P01857] in the same assay as above.

Q: How did the signal [OD405 nm] turn out when B1 was run?
A: 0.125 OD405 nm

Q: For B2, which signal [OD405 nm] is on record?
A: 0.041 OD405 nm

Q: How did the signal [OD405 nm] turn out when B3 was run?
A: 1.73 OD405 nm

Each binder was assayed against anti-VEGF/ANG2 antibody (IgG1 subclass with mutations P329G/L234A/L235A/I253A/H310A/H435A) (human) [IgG part: P01857] in the same assay as above.

Q: For B1, which signal [OD405 nm] is on record?
A: 0.036 OD405 nm

Q: For B2, which signal [OD405 nm] is on record?
A: 0.041 OD405 nm

Q: With B3 as the binder, how does the signal [OD405 nm] read?
A: 0.049 OD405 nm

These binders were tested against anti-IGF-1R antibody (IgG1 subclass with mutations I253A/H310A/H435A) (human) [IgG part: P01857] (assay: sandwich ELISA assay C; capture on SA plate; tracer FcγRI-Dig; analyte 100 ng/mL).

Q: How did the signal [OD405 nm] turn out when B1 was run?
A: 1.2 OD405 nm

Q: Which signal [OD405 nm] does the source give for B2 here?
A: 2.1 OD405 nm

Q: B3 was tested. Which signal [OD405 nm] did it give?
A: 0.11 OD405 nm

These binders were tested against anti-P-Selectin antibody (IgG4 subclass with mutations S228P/L235E) (human) [IgG part: P01861] in the same assay as above.

Q: B1 was tested. Which signal [OD405 nm] did it give?
A: 1.17 OD405 nm

Q: With B2 as the binder, how does the signal [OD405 nm] read?
A: 0.069 OD405 nm

Q: B3 was tested. Which signal [OD405 nm] did it give?
A: 0.08 OD405 nm

Each binder was assayed against anti-VEGF/ANG2 antibody (IgG1 subclass with mutations P329G/L234A/L235A) (human) [IgG part: P01857] in the same assay as above.

Q: Which signal [OD405 nm] does the source give for B1 here?
A: 1.22 OD405 nm

Q: For B2, which signal [OD405 nm] is on record?
A: 0.076 OD405 nm

Q: For B3, which signal [OD405 nm] is on record?
A: 0.082 OD405 nm

What follows are binders tested against anti-VEGF/ANG2 antibody (IgG1 subclass with mutations P329G/L234A/L235A/I253A/H310A/H435A) (human) [IgG part: P01857] in the same assay as above.

Q: B1 was tested. Which signal [OD405 nm] did it give?
A: 1.19 OD405 nm

Q: B2 was tested. Which signal [OD405 nm] did it give?
A: 0.079 OD405 nm

Q: B3 was tested. Which signal [OD405 nm] did it give?
A: 0.05 OD405 nm

What follows are binders tested against anti-IGF-1R antibody (IgG1 subclass with mutations I253A/H310A/H435A) (human) [IgG part: P01857] (assay: sandwich ELISA assay B; capture on SA plate; tracer M1.7.10-Dig; analyte 13 ng/mL).

Q: Which signal [OD405 nm] does the source give for B1 here?
A: 0.044 OD405 nm

Q: With B2 as the binder, how does the signal [OD405 nm] read?
A: 2.85 OD405 nm

Q: For B3, which signal [OD405 nm] is on record?
A: 0.043 OD405 nm

What follows are binders tested against anti-P-Selectin antibody (IgG4 subclass with mutations S228P/L235E) (human) [IgG part: P01861] in the same assay as above.

Q: How did the signal [OD405 nm] turn out when B1 was run?
A: 0.047 OD405 nm

Q: B2 was tested. Which signal [OD405 nm] did it give?
A: 0.042 OD405 nm

Q: For B3, which signal [OD405 nm] is on record?
A: 0.037 OD405 nm

The binders below were run against anti-VEGF/ANG2 antibody (IgG1 subclass with mutations P329G/L234A/L235A/I253A/H310A/H435A) (human) [IgG part: P01857] in the same assay as above.

Q: How did the signal [OD405 nm] turn out when B1 was run?
A: 0.034 OD405 nm

Q: For B2, which signal [OD405 nm] is on record?
A: 0.041 OD405 nm

Q: B3 was tested. Which signal [OD405 nm] did it give?
A: 0.053 OD405 nm
